Results as given in the domain aggregation screens of Martell et al. (2025).

experiment: soluble fraction after stress (log2 fold change); higher = more stays soluble; pooled small domains, quantitative proteomics; conditions: stress: 50 degC
Method in brief: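 Quantitative proteomics served as the high-throughput read-out for pooled custom libraries of small protein domains. Each was stressed at 50°C. Aggregation propensity is expressed as the base-two log fold change in soluble protein after stress. A higher value means a larger share of the protein remains in solution.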

Sequence	soluble fraction (log2)
HMDTDVFLMDLRGESRDYAEEVLINNNLEVKVIILPFSKRHYPGKVVEMRPSPFTKVKKGRIITLSVAGN	-3.71
HMDINLSENLVRLRHAKKLTQEQLADFLGVTKASVSKWETRQSLPDILLLPRLAAFYGVTVDELIGYEP	-0.253
HMEFEYFQLRDHLYNLIMHPDKEKLKKDPDYLKLMSMAFSLLEDQNVGKDILEIAIKSIENFK	-0.573
HMQEDSNISFVKIHVDADSGMAHKKLSKLSLPTGFLIVVIIRGEENIIPNGETEVLPGDLLVAAAREFEN	-0.405
HMFKEVPVPDVKGMTLEEAKLALEKEGFILGKTEEAESTEVAAGKIISQNLEAGKIAKQGTSVNLVVSKGK	0.24
HMKVKEYKLVDWISTFTKNEGYGISQKAAMLLAEFLGDDLSRIANEIEKLKLLVEKGTTINDVHIEENI	-0.797
HMIADPAKPDWTTILAPVTTGTTVTHKTFGQGTVTKLDKTKKYLTVSFAAGQKNFVFPNAFIDGFLK	0.203
HMETYPINVETTGTNVLLRTGPSTSSNIIKTITDKGTVFLSIERGINSDWQKVVTPDGTIGYMSGKY	0.000612
HMITNLEPFKDFVRGFSGLHLEGVGQEKLAAALDERIRKTGSANERDYLQLIMEDVAERLKLINILT	0.0546
HMQLDLSDPSKNKLDSIVSLPIKSLKAVEANGEILFMSENGRFVLRGQLYDIWYKDTLDTSAQIQDAATRI	0.109
HMQKIENYDQFVQAFKRLSGLDLKLYKENQMKRRINNFINNHGFKENYDQFFQAITGNKELYNAFFKHLTI	-0.172
HMPDTETLTPRQRQILDLVQELGFTTIETLAERFGVSAQTVRREIIRLQAGNFLQRFHGGAGLASGGIRSA	-0.632
HMSHISLGQRYKIEGYLQINLKRTQIAKEIGLPKKTVNQEIKRNSNPQTGIYKAEEAHQLYLDRMQKKRK	-0.131
HMFTEEEMTKLRHELILAGIRLSRELGLQRMSVEKITSAVGIAKGSFYIFFDSKEDFILEIADHANRE	-1.06
HMGALAITPDFVGQTREEAERFLRDLDLSFDIGGKGDRILRQEPVAGQRMNLDQPMKLWVGSMNA	0.0609
HMHHDDHNQQEEIKEKLLAMVADGERHHVTEVRQLDEDWDMVTKVMKELMDEEQLLMDGSYLILSA	-0.0951
HMEEFLSFIADILEVDKNTLTLETSQDDVETWDSLMQLRLLGEIEAKYGVMIPMERISTIKKLNDFYQYIK	-0.513
HMDDTVILPIQINGKRRAEISVPKAMPASEVEKLALANEDVLRFLAGQPIKKLIVVPGRIINVV	0.179
HMLDEKAVRQYLLNTLENSEIKMDRQAIDLFLRLTDLDLSKMMRELQKILLYGQEQEVITVKEIEQ	-0.856

Sequence	soluble fraction (log2)
HMEAKQMDAWIVSEAKRQGGKIEPAAAYELSRHTATDTSIASQEIAKLLMYVDFKRPVTREDVVELVSA	0.176
HMEVVVPEDLDAALQQASRAQSFFSSLSYTHKKEYVAWINEAKRAETRAMRIQKTITMLESGQRGH	-1.14
HMDASKVKIEDLGLSTRTENALVAASIRTAGGLARKSEMDLLSTDGLGEKGITEIKKALSDLGLELK	0.285
HMRLSDSEFESIENAIKEKLENSALTADVLVKELSFDEDKIWKVIRWLEDAEKISEDEAGTLLWKPR	-0.22
HMADFIKEIKTNNPRQLLKSILSSFMPRALILELEMLLWNDLKSKPIGEWSNTQIENVGKLLNNWILKPAA	0.0698
HMTEKQYIYSIGDRVNIGTDEFEIVNINEKEVSIADVTFPMLVKQISYEEFDRKVKENPFNDHLII	0.0642
HMQAQQYYMLLMNKATSALKIEALGANSNKAHQSFGTKTAGGSAVYWGILFNSNGKIYKIVG	-2.96
HMGEWHQMLRSWGETELKNGRQNILDEAVPAFERAMIETALAHTSGRKKDAALLLGWGRNTLTRKLQEHSI	-0.0702
HMNPHGVAIIDVRKGKASTLRSLATSVRSLGEWDQLKIPIFNLESLTSLVLWHGLDAIVKEPESLQSNLIL	-0.62
HMAADWTAIKLAYVNGGMSMRELAQRFHVGAAGLMKRAAKEGWEAERQQNSAKVSNAAQMLIN	0.33
HMSFKQARFMMDAANGKALAWLYSHAEVLDRKDQGENIEIHVMISPADLSRFVNAFGYQPVQS	-0.2
HMETVRHFRLDWSQAADRLDKVLASLMNDVSRARIQEWIRLGAVSVNGEILTDVRAKVAGGDAIDVTPQTA	-0.0893
HMGSPKLVIKNGQVDYQVLKKEKLDLLELTSLLRGQNTFSIREIEYAIIEPNGVITVIKKPEYQSVVKGDL	-0.239
HMATTIDFTVGDDVQVMNGPLESFTGKVTELNEASQKVKVDVVMFGRVTNVELDFVQVKKIT	0.162
HMTIERVKIKETPTGWLRVRETPDNNGSEIGRANVGEIYELLGSKGEWYHIVYKGKQGFISTKYAEKVL	-0.22
HMDSLELADEVGRVSEALQELRPHQREVLELSLVHGRSHQQISEKTGLALGTVKSHARRGLMRVREMLGV	-0.445
HMLPEGIENGDVLTRTDALDYRKWLVTGNQKRIFASTASFYGENFNYSEVKAVSDRVLDAIPDGEPV	-0.0574
HMEISTEVPLRGGTISEEALEALNRLPGVTASNIDGKSISVDVADNAELRVSDINQVLAVHSPDTRV	0.209
